Biological target: fusion-competent ectodomain of influenza virus A/PR8/34 (Ecto-PR8/34) hemagglutinin (influenza virus A/PR/8/34, UniProt P03452 18-528)
Test: BLI

Chain of fusion-competent ectodomain of influenza virus A/PR8/34 (Ecto-PR8/34) hemagglutinin (P03452 18-528): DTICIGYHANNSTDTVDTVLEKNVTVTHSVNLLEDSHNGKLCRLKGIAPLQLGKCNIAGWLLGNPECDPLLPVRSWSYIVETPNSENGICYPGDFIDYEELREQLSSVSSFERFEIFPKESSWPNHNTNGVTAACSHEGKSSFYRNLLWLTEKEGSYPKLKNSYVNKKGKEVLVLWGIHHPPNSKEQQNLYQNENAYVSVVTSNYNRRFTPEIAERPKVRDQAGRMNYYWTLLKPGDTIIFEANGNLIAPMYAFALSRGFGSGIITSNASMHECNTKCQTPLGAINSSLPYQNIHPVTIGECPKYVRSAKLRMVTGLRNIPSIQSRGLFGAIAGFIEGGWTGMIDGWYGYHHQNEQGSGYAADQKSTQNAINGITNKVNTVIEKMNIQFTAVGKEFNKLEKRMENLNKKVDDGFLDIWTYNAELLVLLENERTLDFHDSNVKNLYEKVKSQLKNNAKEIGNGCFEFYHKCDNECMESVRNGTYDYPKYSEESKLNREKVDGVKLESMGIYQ

B1: anti-HA antibody C179 (antibody, V domains shown)
VH: EVKLVESGGGLVQPGGSLRLSCGTSGFTLTDDYMTWVRQPPGKALEWLGFIRDRANGYTTEYSASVKGRFTISRDNSQSIVYLQMNTLRVEDSATYYCARPKGYFPYAMDYWGQGTSVIVSS
VL: DIQMTQSPASQSASLGESVTITCLASQTIGTWLAWYQQKPGKSPQLLIYAATSLADGVPSRFSGSGSGTKFSFKISSLQAEDFVSYYCQQLYSTPWTFGGGTRLEIKR
Kd: 0.0184 µM
